Results published in IntAct's records for PubMed 26031419.

B1: Glucocorticoid receptor (Homo sapiens), P04150-1 (parent)
chain: MDSKESLTPGREENPSSVLAQERGDVMDFYKTLRGGATVKVSASSPSLAVASQSDSKQRRLLVDFPKGSVSNAQQPDLSKAVSLSMGLYMGETETKVMGNDLGFPQQGQISLSSGETDLKLLEESIANLNRSTSVPENPKSSASTAVSAAPTEKEFPKTHSDVSSEQQHLKGQTGTNGGNVKLYTTDQSTFDILQDLEFSSGSPGKETNESPWRSDLLIDENCLLSPLAGEDDSFLLEGNSNEDCKPLILPDTKPKIKDNGDLVLSSPSNVTLPQVKTEKEDFIELCTPGVIKQEKLGTVYCQASFPGANIIGNKMSAISVHGVSTSGGQMYHYDMNTASLSQQQDQKPIFNVIPPIPVGSENWNRCQGSGDDNLTSLGTLNFPGRTVFSNGYSSPSMRPDVSSPPSSSSTATTGPPPKLCLVCSDEASGCHYGVLTCGSCKVFFKRAVEGQHNYLCAGRNDCIIDKIRRKNCPACRYRKCLQAGMNLEARKTKKKIKGIQQATTGVSQETSENPGNKTIVPATLPQLTPTLVSLLEVIEPEVLYAGYDSSVPDSTWRIMTTLNMLGGRQVIAAVKWAKAIPGFRNLHLDDQMTLLQYSWMFLMAFALGWRSYRQSSANLLCFAPDLIINEQRMTLPCMYDQCKHMLYVSSELHRLQVSYEEYLCMKTLLLLSSVPKDGLKSQELFDEIRMTYIKELGKAIVKREGNSSQNWQRFYQLTKLLDSMHEVVENLLNYCFQTFLDKTMSIEFPEMLAEIITNQIPKYSNGNIKKLLFHQK

Variants of: B1
Details: with ncoa2_mouse Ncoa2, Q61026
Chain of ncoa2_mouse Ncoa2, Q61026 (Q61026 whole entry): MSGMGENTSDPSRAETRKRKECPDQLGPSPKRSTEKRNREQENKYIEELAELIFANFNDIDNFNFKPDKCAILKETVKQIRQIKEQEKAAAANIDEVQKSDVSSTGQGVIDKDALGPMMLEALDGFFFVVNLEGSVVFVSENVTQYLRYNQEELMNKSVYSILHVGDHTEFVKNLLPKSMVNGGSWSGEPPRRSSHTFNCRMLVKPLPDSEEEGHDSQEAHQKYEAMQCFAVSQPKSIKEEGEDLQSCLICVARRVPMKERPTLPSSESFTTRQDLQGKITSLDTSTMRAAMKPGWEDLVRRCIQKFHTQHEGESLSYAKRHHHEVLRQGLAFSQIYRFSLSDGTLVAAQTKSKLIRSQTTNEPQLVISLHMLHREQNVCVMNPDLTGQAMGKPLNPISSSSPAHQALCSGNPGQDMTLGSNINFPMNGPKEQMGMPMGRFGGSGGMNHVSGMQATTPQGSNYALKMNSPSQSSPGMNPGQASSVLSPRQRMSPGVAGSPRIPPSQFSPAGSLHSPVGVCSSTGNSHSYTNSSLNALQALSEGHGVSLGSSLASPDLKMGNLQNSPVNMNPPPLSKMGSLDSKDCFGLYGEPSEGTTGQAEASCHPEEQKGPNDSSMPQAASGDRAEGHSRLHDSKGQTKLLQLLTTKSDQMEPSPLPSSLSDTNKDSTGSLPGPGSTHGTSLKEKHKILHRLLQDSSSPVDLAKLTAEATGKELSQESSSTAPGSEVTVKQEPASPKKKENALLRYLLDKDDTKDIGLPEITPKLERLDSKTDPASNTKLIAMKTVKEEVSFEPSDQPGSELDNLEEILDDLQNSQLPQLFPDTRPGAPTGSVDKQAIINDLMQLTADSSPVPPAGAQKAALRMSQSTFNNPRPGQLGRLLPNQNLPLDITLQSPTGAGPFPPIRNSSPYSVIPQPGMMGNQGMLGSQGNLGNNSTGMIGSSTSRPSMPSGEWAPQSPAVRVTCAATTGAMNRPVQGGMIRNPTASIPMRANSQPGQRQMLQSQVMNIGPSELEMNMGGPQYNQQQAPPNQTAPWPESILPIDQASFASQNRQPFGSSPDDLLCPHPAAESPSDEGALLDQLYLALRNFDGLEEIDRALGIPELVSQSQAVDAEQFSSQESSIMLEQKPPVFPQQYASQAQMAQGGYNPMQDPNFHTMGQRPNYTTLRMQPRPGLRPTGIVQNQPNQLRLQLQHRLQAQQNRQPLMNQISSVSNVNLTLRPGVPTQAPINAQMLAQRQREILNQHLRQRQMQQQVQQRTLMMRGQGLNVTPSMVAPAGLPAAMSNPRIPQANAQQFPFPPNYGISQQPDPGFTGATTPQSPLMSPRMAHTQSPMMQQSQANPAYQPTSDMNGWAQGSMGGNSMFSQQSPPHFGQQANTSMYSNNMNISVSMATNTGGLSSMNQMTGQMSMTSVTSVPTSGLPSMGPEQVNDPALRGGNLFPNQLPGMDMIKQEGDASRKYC

| Variant | effect of a mutation on the interaction |
| --- | --- |
| H726R | with no effect |

Variants of: B1
Details: with ncoa2_mouse Ncoa2, Q61026
Remark: another data set of the same source

| Variant | effect of a mutation on the interaction |
| --- | --- |
| H726R | decreasing interaction strength |
